Kd data for 37 molecules are collected here from article PMC10786891, “Massively parallel profiling of RNA-targeting CRISPR-Cas13d”.

Positions count from the first letter of the chain named. Names and notes keep the numbering of the source.

Sequences and labels used below:
T1: EsCas13d, nuclease-dead (Eubacterium siraeum, UniProt B0MS50, R295A;H300A;R849A;H854A)
T1 sequence: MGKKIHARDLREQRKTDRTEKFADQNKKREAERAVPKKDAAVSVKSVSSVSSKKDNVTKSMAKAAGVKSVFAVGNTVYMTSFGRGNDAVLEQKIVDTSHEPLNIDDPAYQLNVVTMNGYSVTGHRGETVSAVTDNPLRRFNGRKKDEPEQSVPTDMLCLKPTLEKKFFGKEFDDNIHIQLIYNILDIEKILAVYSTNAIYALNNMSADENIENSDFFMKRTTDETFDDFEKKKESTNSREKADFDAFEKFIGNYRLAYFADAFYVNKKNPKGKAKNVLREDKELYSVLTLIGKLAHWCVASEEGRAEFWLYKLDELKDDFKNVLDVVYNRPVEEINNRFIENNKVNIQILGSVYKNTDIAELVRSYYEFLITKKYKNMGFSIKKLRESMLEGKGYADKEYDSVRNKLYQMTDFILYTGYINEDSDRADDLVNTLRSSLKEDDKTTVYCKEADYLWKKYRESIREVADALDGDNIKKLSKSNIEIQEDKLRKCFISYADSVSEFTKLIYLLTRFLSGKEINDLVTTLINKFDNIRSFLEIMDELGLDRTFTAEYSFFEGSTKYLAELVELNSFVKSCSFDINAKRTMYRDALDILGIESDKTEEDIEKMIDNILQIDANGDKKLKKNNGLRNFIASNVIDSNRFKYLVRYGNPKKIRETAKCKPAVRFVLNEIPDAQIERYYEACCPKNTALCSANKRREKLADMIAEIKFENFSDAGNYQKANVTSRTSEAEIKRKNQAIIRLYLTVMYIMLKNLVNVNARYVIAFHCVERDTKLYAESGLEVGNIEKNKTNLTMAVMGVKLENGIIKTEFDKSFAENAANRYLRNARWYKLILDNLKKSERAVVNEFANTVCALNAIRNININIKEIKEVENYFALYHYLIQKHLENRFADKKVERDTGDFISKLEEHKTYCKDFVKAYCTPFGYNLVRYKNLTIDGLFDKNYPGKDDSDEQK

B1: target 1 MT 5'PFS GUU 3'PFS UGC (mixed)
RNA 1: CACCCGUGCAAAAAUGCAGGGGUCUAAAACUGAGCGGAUAACCUCUCUAUGG
RNA 2: GGGAAUGGAUCCACAUCUACGAAUUCGUUCCAUAGAGAGGUUAUCCGCUCAUGCAGAUCGGAAGAGCACACGU
B2: target 1 MT 5'PFS CAU 3'PFS CUC (mixed)
RNA 1: B1 RNA 1
RNA 2: B1 RNA 2 with G27C, U28A, U52C, G53U
B3: target 1 MT 5'PFS GAC 3'PFS UAA (mixed)
RNA 1: B1 RNA 1
RNA 2: B1 RNA 2 with U28A, U29C, G53A, C54A
B4: target 1 C6U,U19C (mixed)
RNA 1: B1 RNA 1
RNA 2: B1 RNA 2 with U29A, U33C, C46U, U52C, G53C, C54G
B5: target 1 del4,del8 (mixed)
RNA 1: B1 RNA 1
RNA 2: GGGAAUGGAUCCACAUCUACGAAUUCGUACCAUAGAGAGGUUACCGUCACCGAGAUCGGAAGAGCACACGU
B6: target 1 insG 3' of 20,insA 3' of 10 (mixed)
RNA 1: B1 RNA 1
RNA 2: GGGAAUGGAUCCACAUCUACGAAUUCGUACCAGUAGAGAGGUUAAUCCGCUCACCGAGAUCGGAAGAGCACACGU
B7: target 1 MT 5'PFS GUU 3'PFS UGU (mixed)
RNA 1: B1 RNA 1
RNA 2: B1 RNA 2 with C54U
B8: target 1 MT 5'PFS GUU 3'PFS CGU (mixed)
RNA 1: B1 RNA 1
RNA 2: B1 RNA 2 with U52C, C54U
B9: target 1 MT 5'PFS AGG 3'PFS CAG (mixed)
RNA 1: B1 RNA 1
RNA 2: B1 RNA 2 with G27A, U28G, U29G, U52C, G53A, C54G
B10: target 1 MT 5'PFS UAG 3'PFS GAG (mixed)
RNA 1: B1 RNA 1
RNA 2: B1 RNA 2 with G27U, U28A, U29G, U52G, G53A, C54G
B11: target 1 MT 5'PFS GCA 3'PFS AGC (mixed)
RNA 1: B1 RNA 1
RNA 2: B1 RNA 2 with U28C, U29A, U52A
B12: target 1 MT 5'PFS GGC 3'PFS CCA (mixed)
RNA 1: B1 RNA 1
RNA 2: B1 RNA 2 with U28G, U29C, U52C, G53C, C54A
B13: target 1 MT 5'PFS UUG 3'PFS CUU (mixed)
RNA 1: B1 RNA 1
RNA 2: B1 RNA 2 with G27U, U29G, U52C, G53U, C54U
B14: target 1 MT 5'PFS UCG 3'PFS AUC (mixed)
RNA 1: B1 RNA 1
RNA 2: B1 RNA 2 with G27U, U28C, U29G, U52A, G53U
B15: target 1 MT 5'PFS GUU 3'PFS CGA (mixed)
RNA 1: B1 RNA 1
RNA 2: B1 RNA 2 with U52C, C54A
B16: target 1 MT 5'PFS ACC 3'PFS UAC (mixed)
RNA 1: B1 RNA 1
RNA 2: B1 RNA 2 with G27A, U28C, U29C, G53A
B17: target 1 MT 5'PFS UUG 3'PFS CUG (mixed)
RNA 1: B1 RNA 1
RNA 2: B1 RNA 2 with G27U, U29G, U52C, G53U, C54G
B18: target 1 MT 5'PFS GAC 3'PFS UAC (mixed)
RNA 1: B1 RNA 1
RNA 2: B1 RNA 2 with U28A, U29C, G53A
B19: target 1 MT 5'PFS UCG 3'PFS AUU (mixed)
RNA 1: B1 RNA 1
RNA 2: B1 RNA 2 with G27U, U28C, U29G, U52A, G53U, C54U
B20: target 1 MT 5'PFS CCA 3'PFS CGG (mixed)
RNA 1: B1 RNA 1
RNA 2: B1 RNA 2 with G27C, U28C, U29A, U52C, C54G
B21: target 1 MT 5'PFS ACC 3'PFS UAG (mixed)
RNA 1: B1 RNA 1
RNA 2: B1 RNA 2 with G27A, U28C, U29C, G53A, C54G
B22: target 1 MT 5'PFS CAU 3'PFS CUA (mixed)
RNA 1: B1 RNA 1
RNA 2: B1 RNA 2 with G27C, U28A, U52C, G53U, C54A
B23: target 1 MT 5'PFS UUG 3'PFS CUA (mixed)
RNA 1: B1 RNA 1
RNA 2: B1 RNA 2 with G27U, U29G, U52C, G53U, C54A
B24: target 1 MT 5'PFS GUU 3'PFS UGA (mixed)
RNA 1: B1 RNA 1
RNA 2: B1 RNA 2 with C54A
B25: target 1 MT 5'PFS GUU 3'PFS CGC (mixed)
RNA 1: B1 RNA 1
RNA 2: B1 RNA 2 with U52C
B26: target 1 MT 5'PFS UUA 3'PFS UAG (mixed)
RNA 1: B1 RNA 1
RNA 2: B1 RNA 2 with G27U, U29A, G53A, C54G
B27: target 1 G5U,G13C (mixed)
RNA 1: B1 RNA 1
RNA 2: B1 RNA 2 with U29A, G39C, G47U, U52C, G53C, C54G
B28: target 1 MT 5'PFS GAC 3'PFS UAU (mixed)
RNA 1: B1 RNA 1
RNA 2: B1 RNA 2 with U28A, U29C, G53A, C54U
B29: target 1 MT 5'PFS GUU 3'PFS CGG (mixed)
RNA 1: B1 RNA 1
RNA 2: B1 RNA 2 with U52C, C54G
B30: target 1 MT 5'PFS GGC 3'PFS CCG (mixed)
RNA 1: B1 RNA 1
RNA 2: B1 RNA 2 with U28G, U29C, U52C, G53C, C54G
B31: target 1 MT 5'PFS AAC 3'PFS CCG (mixed)
RNA 1: B1 RNA 1
RNA 2: B1 RNA 2 with G27A, U28A, U29C, U52C, G53C, C54G
B32: target 1 MT 5'PFS CCG 3'PFS ACA (mixed)
RNA 1: B1 RNA 1
RNA 2: B1 RNA 2 with G27C, U28C, U29G, U52A, G53C, C54A
B33: target 1 MT 5'PFS AAC 3'PFS AAC (mixed)
RNA 1: B1 RNA 1
RNA 2: B1 RNA 2 with G27A, U28A, U29C, U52A, G53A
B34: target 1 MT 5'PFS AAC 3'PFS AAG (mixed)
RNA 1: B1 RNA 1
RNA 2: B1 RNA 2 with G27A, U28A, U29C, U52A, G53A, C54G
B35: target 1 MT 5'PFS GGA 3'PFS GAG (mixed)
RNA 1: B1 RNA 1
RNA 2: B1 RNA 2 with U28G, U29A, U52G, G53A, C54G
B36: target 1 MT 5'PFS GAC 3'PFS UAG (mixed)
RNA 1: B1 RNA 1
RNA 2: B1 RNA 2 with U28A, U29C, G53A, C54G
B37: target 1 MT 5'PFS AAA 3'PFS CAC (mixed)
RNA 1: B1 RNA 1
RNA 2: B1 RNA 2 with G27A, U28A, U29A, U52C, G53A

The target in this data set is T1, EsCas13d, nuclease-dead. Kind of data set: crRNA (strand 1, pre-loaded); Mg2+; 40 mM Tris-HCl pH 7.5, 150 mM NaCl, 6 mM MgCl2, 1 mM DTT, 0.1% Tween-20, 0.2 mg/ml BSA; 25 C; 10 min per concentration, then washed. The settings on record: tags: His6-TwinStrep-SUMO cleaved; N-terminal SNAP kept (SNAP-Surface 488); label: 3' end held by stalled T7 RNA polymerase.
With B1, the Kd came to 15.5 ± 2.7 nM.

The molecule B2 yielded a Kd of around 90 nM.

B3 gave a Kd of 17.5 ± 4.5 nM.

As to B4, binding was put at a Kd of 29.7 ± 2 nM.

B5 registered a Kd of 12.1 ± 1 nM.

The molecule B6 yielded a Kd of 42 ± 8 nM.

For the molecule B7, binding was put at a Kd of 34.5 ± 6.5 nM.

For the molecule B8, the Kd turned out to be 12.3 ± 1.8 nM.

Turning to B9, the Kd is around 41 nM.

For the molecule B10, binding was characterised by a dissociation constant (Kd) of 91 ± 37 nM.

B11 returned a Kd of 28.5 ± 14 nM.

B12 displayed a Kd of 31.5 ± 10.5 nM.

The molecule B13 displayed a Kd of 14.4 ± 3.55 nM.

For the molecule B14, binding was characterised by a dissociation constant (Kd) of 42 ± 13 nM.

As for B15, the Kd is 19.7 ± 4.2 nM.

For the molecule B16, the Kd came to 31 ± 14.5 nM.

Molecule B17 came in with a Kd of 23.5 ± 5.75 nM.

For B18, the affinity, expressed as Kd, was 19 ± 8 nM.

In turn, B19 showed a Kd of 32.5 ± 10.5 nM.

Turning to B20, the affinity, expressed as Kd, was 5.05 ± 1.35 nM.

B21 displayed a Kd of around 14.5 nM.

B22: the Kd was around 110 nM.

Consider B23, for which the Kd stood at 45.5 ± 18 nM.

Turning to B24, the Kd was determined as 16.8 ± 2.5 nM.

In turn, B25 yielded a Kd of 19.8 ± 4.5 nM.

B26: binding was put at a Kd of 27.5 ± 6 nM.

In turn, B27 registered a Kd of 39 ± 6 nM.

Molecule B28 came in with a Kd of 19 ± 6 nM.

B29 returned a Kd of 67 ± 9 nM.

B30 gave a Kd of 8.35 ± 1.4 nM.

Turning to B31, the Kd was found to be 19.5 ± 4.45 nM.

B32 yielded a Kd of 38.5 ± 13 nM.

Take B33: the affinity, expressed as Kd, was 84.5 ± 41.5 nM.

Take B34: the Kd worked out at 34.5 ± 15 nM.

With B35, binding was characterised by a dissociation constant (Kd) of 19 ± 6 nM.

B36: the Kd amounted to 27.5 ± 11 nM.

Molecule B37 registered a Kd of 29.5 ± 11.5 nM.

As usually defined, the Kd is the equilibrium constant for the complex coming apart.
